Peptide exchange data for 70 substances are collected here from patent US20170037111A1, “Novel peptides and combination of peptides for use in immunotherapy against ovarian cancer and other cancers” (immatics biotechnologies GmbH, priority 2015, published 2017).

The target in this experiment is HLA-A*02:01 (Homo sapiens, UniProt P04439, D140Y/D185E/D98H/E176V/E277Q/G131W/G231S/I119V/I121R/I166T/I218V/L300P/L318F/N151K/N90K/P208A/P217A/Q86G/Q94H/R138H/R169H/T345S). The experiment is described as follows: MHC binding assay (UV-ligand exchange, β2m ELISA, peptide exchange yield). As to conditions: MHC class I binding score; binding to HLA-A*02:01 ranged by peptide exchange yield (UV-ligand exchange, β2m ELISA). In a few lines:
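Binding is expressed as peptide exchange yield: stabilized MHC complexes were quantified by β2m ELISA, with a 450 nm TMB read-out on streptavidin-coated plates. Complexes came from UV-ligand exchange, where UV irradiation cleaves a photolabile peptide so the candidate peptide can load.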

Consider “593 (GLPRFGIEMV; listed as Homo sapiens) [compound 593]”, for which the Peptide exchange result is reported as “″+++″ (≧50% = +++)”.

In the case of “615 (VLPPDTDPA; listed as Homo sapiens) [compound 615]”, the Peptide exchange entry is reported as “″++″ (≧20% = ++)”.

As for “35 (KINDTIYEV; listed as Homo sapiens) [compound 35]”, the Peptide exchange entry is “″+++″ (≧50% = +++)”.

With “174 (ALAQYLITA; listed as Homo sapiens) [compound 174]”, the Peptide exchange result was “″+++″ (≧50% = +++)”.

On to “125 (VQIHQVAQV; listed as Homo sapiens) [compound 125]”, for which the Peptide exchange result was “″+++″ (≧50% = +++)”.

For the substance “307 (ALPVSLPQI; listed as Homo sapiens) [compound 307]”, the Peptide exchange result is “″+++″ (≧50% = +++)”.

On to “176 (YLMEGSYNKVFL; listed as Homo sapiens) [compound 176]”, for which the Peptide exchange entry was “″++″ (≧20% = ++)”.

For “322 (TLMTSLPAL; listed as Homo sapiens) [compound 322]”, the Peptide exchange result is given as “″+++″ (≧50% = +++)”.

For “583 (ILANDGVLLAA; listed as Homo sapiens) [compound 583]”, the Peptide exchange entry is “″+++″ (≧50% = +++)”.

On to “278 (QLLDVVLTI; listed as Homo sapiens) [compound 278]”, for which the Peptide exchange result is listed as “″++″ (≧20% = ++)”.

As for “165 (SLLDEIRAV; listed as Homo sapiens) [compound 165]”, the Peptide exchange entry was “″+++″ (≧50% = +++)”.

For “184 (YLMDINGKMWL; listed as Homo sapiens) [compound 184]”, the Peptide exchange result is “″+++″ (≧50% = +++)”.

Turning to “525 (VLLEAGEGLVTI; listed as Homo sapiens) [compound 525]”, the Peptide exchange entry is recorded as “″+++″ (≧50% = +++)”.

For “582 (TLCDVILMV; listed as Homo sapiens) [compound 582]”, the Peptide exchange result was “″+++″ (≧50% = +++)”.

With “28 (QLLDETSAITL; listed as Homo sapiens) [compound 28]”, the Peptide exchange entry was “″+++″ (≧50% = +++)”.

“546 (VMIAGKVAVV; listed as Homo sapiens) [compound 546]”: the Peptide exchange result was “″+++″ (≧50% = +++)”.

In the case of “566 (VIADGGIQNV; listed as Homo sapiens) [compound 566]”, the Peptide exchange entry is “″++″ (≧20% = ++)”.

For “121 (GVVDPRAISVL; listed as Homo sapiens) [compound 121]”, the Peptide exchange result is reported as “″++″ (≧20% = ++)”.

For “169 (NLPEYLPFV; listed as Homo sapiens) [compound 169]”, the Peptide exchange result was “″+++″ (≧50% = +++)”.

As for “230 (ILVDWLVEV; listed as Homo sapiens) [compound 230]”, the Peptide exchange entry was “″+″ (≧10% = +)”.

Take “50 (SLSELEALM; listed as Homo sapiens) [compound 50]”: the Peptide exchange entry is on record as “″+++″ (≧50% = +++)”.

For “264 (SLQEQLHSV; listed as Homo sapiens) [compound 264]”, the Peptide exchange entry is given as “″+++″ (≧50% = +++)”.

“545 (LLADLLHNV; listed as Homo sapiens) [compound 545]”: the Peptide exchange entry is “″+++″ (≧50% = +++)”.

Regarding “204 (KIAENVEEV; listed as Homo sapiens) [compound 204]”, the Peptide exchange entry was “″++″ (≧20% = ++)”.

For the substance “94 (YLIDIKTIAI; listed as Homo sapiens) [compound 94]”, the Peptide exchange result is given as “″++″ (≧20% = ++)”.

Take “490 (FLLQHVQEL; listed as Homo sapiens) [compound 490]”: the Peptide exchange result is recorded as “″+++″ (≧50% = +++)”.

Turning to “348 (ILLDVKTRL; listed as Homo sapiens) [compound 348]”, the Peptide exchange entry is listed as “″++++″ (≧75% = ++++)”.

Turning to “372 (TMLLNIPLV; listed as Homo sapiens) [compound 372]”, the Peptide exchange result is “″++″ (≧20% = ++)”.

As to “4 (GIMEHITKI; listed as Homo sapiens) [compound 4]”, the Peptide exchange entry is given as “″++++″ (≧75% = ++++)”.

For “434 (KVSNSGITRV; listed as Homo sapiens) [compound 434]”, the Peptide exchange entry is given as “″++″ (≧20% = ++)”.

Take “347 (SLFKHDPAAWEA; listed as Homo sapiens) [compound 347]”: the Peptide exchange entry is recorded as “″++++″ (≧75% = ++++)”.

In the case of “505 (SLAPGDVVRQV; listed as Homo sapiens) [compound 505]”, the Peptide exchange result was “″++″ (≧20% = ++)”.

On to “557 (KLYDDMIRL; listed as Homo sapiens) [compound 557]”, for which the Peptide exchange entry is recorded as “″+++″ (≧50% = +++)”.

Consider “447 (QLVPALAKV; listed as Homo sapiens) [compound 447]”, for which the Peptide exchange entry is reported as “″++″ (≧20% = ++)”.

“592 (RLLSAAENFL; listed as Homo sapiens) [compound 592]”: the Peptide exchange result was “″+++″ (≧50% = +++)”.

As to “344 (YLQDQHLLLTV; listed as Homo sapiens) [compound 344]”, the Peptide exchange entry is recorded as “″+++″ (≧50% = +++)”.

With “188 (GLFPVTPEAV; listed as Homo sapiens) [compound 188]”, the Peptide exchange entry was “″+++″ (≧50% = +++)”.

In the case of “89 (YILPTETIYV; listed as Homo sapiens) [compound 89]”, the Peptide exchange entry is on record as “″++++″ (≧75% = ++++)”.

Turning to “146 (SLATAGDGLIEL; listed as Homo sapiens) [compound 146]”, the Peptide exchange result is “″++″ (≧20% = ++)”.

Consider “430 (HLYSSIEHLTT; listed as Homo sapiens) [compound 430]”, for which the Peptide exchange entry was “″+++″ (≧50% = +++)”.

With “398 (KLLEEDGTIITL; listed as Homo sapiens) [compound 398]”, the Peptide exchange entry is listed as “″++″ (≧20% = ++)”.

With “201 (RLVDYLEGI; listed as Homo sapiens) [compound 201]”, the Peptide exchange result is “″+++″ (≧50% = +++)”.

“613 (RLLPPGAVVAV; listed as Homo sapiens) [compound 613]”: the Peptide exchange result is recorded as “″+++″ (≧50% = +++)”.

With “309 (GLFDGVPTTA; listed as Homo sapiens) [compound 309]”, the Peptide exchange entry is recorded as “″+++″ (≧50% = +++)”.

Turning to “300 (ALLGQTFSL; listed as Homo sapiens) [compound 300]”, the Peptide exchange entry is recorded as “″+++″ (≧50% = +++)”.

Regarding “480 (ALLEDSCHYL; listed as Homo sapiens) [compound 480]”, the Peptide exchange result is “″+++″ (≧50% = +++)”.

On to “22 (IMEENPGIFAV; listed as Homo sapiens) [compound 22]”, for which the Peptide exchange entry is recorded as “″+++″ (≧50% = +++)”.

As to “211 (LLWPGAALL; listed as Homo sapiens) [compound 211]”, the Peptide exchange entry was “″++″ (≧20% = ++)”.

“216 (NLWEDPYYL; listed as Homo sapiens) [compound 216]”: the Peptide exchange result is recorded as “″+++″ (≧50% = +++)”.

Turning to “245 (SMIDDLLGV; listed as Homo sapiens) [compound 245]”, the Peptide exchange entry is “″+++″ (≧50% = +++)”.

On to “367 (SLQNHNHQL; listed as Homo sapiens) [compound 367]”, for which the Peptide exchange entry is listed as “″+++″ (≧50% = +++)”.

In the case of “617 (ALMYESEKVGV; listed as Homo sapiens) [compound 617]”, the Peptide exchange result is recorded as “″+++″ (≧50% = +++)”.

As to “209 (KLIESKHEV; listed as Homo sapiens) [compound 209]”, the Peptide exchange entry is listed as “″++″ (≧20% = ++)”.

For the substance “237 (ALLEASGTLLL; listed as Homo sapiens) [compound 237]”, the Peptide exchange result is on record as “″++++″ (≧75% = ++++)”.

For the substance “370 (SLLQDLVSV; listed as Homo sapiens) [compound 370]”, the Peptide exchange entry is “″+++″ (≧50% = +++)”.

On to “315 (YLQDVVEQA; listed as Homo sapiens) [compound 315]”, for which the Peptide exchange entry is “″+++″ (≧50% = +++)”.

For “343 (SLLEVNEESTV; listed as Homo sapiens) [compound 343]”, the Peptide exchange entry is reported as “″+++″ (≧50% = +++)”.

Regarding “584 (ALAEVAAMENV; listed as Homo sapiens) [compound 584]”, the Peptide exchange result is given as “″+++″ (≧50% = +++)”.

With “202 (ALLDQQGSRWTL; listed as Homo sapiens) [compound 202]”, the Peptide exchange result is listed as “″+++″ (≧50% = +++)”.

Take “570 (ALANQIPTV; listed as Homo sapiens) [compound 570]”: the Peptide exchange result is “″++″ (≧20% = ++)”.

Take “590 (SLIEKLWQT; listed as Homo sapiens) [compound 590]”: the Peptide exchange result is given as “″++″ (≧20% = ++)”.

For the substance “522 (TLWYRSPEV; listed as Homo sapiens) [compound 522]”, the Peptide exchange result is “″++″ (≧20% = ++)”.

In the case of “312 (IISDLTIAL; listed as Homo sapiens) [compound 312]”, the Peptide exchange result was “″+++″ (≧50% = +++)”.

For the substance “229 (RLPGPLGTV; listed as Homo sapiens) [compound 229]”, the Peptide exchange entry is on record as “″++″ (≧20% = ++)”.

“148 (ALNPEIVSV; listed as Homo sapiens) [compound 148]”: the Peptide exchange result is “″++″ (≧20% = ++)”.

For the substance “167 (KVLEVTEEFGV; listed as Homo sapiens) [compound 167]”, the Peptide exchange entry is reported as “″+++″ (≧50% = +++)”.

Turning to “623 (YLVEDIQHI; listed as Homo sapiens) [compound 623]”, the Peptide exchange result is recorded as “″+++″ (≧50% = +++)”.

On to “359 (YLLPESVDL; listed as Homo sapiens) [compound 359]”, for which the Peptide exchange entry is “″+++″ (≧50% = +++)”.

For the substance “350 (ALLDVTHSELTV; listed as Homo sapiens) [compound 350]”, the Peptide exchange result is listed as “″+++″ (≧50% = +++)”.

As for “266 (KITDTLIHL; listed as Homo sapiens) [compound 266]”, the Peptide exchange result is “″+++″ (≧50% = +++)”.
